Residue numbers refer to the chain shown, from its start.
T1: cyno TREM-1 (cynomolgus monkey, UniProt A0A2K5VHG8 21-233)
T1 sequence: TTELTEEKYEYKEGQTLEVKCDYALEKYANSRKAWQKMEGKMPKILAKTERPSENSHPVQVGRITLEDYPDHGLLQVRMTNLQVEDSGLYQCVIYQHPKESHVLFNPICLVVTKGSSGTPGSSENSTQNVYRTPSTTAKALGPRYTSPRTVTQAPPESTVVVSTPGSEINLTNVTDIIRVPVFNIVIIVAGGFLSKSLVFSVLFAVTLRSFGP

T2: cyno TREM-1-His protein (cynomolgus monkey, UniProt A0A2K5VHG8 21-204)
T2 construct: extracellular domain; Soluble analyte of the Octet assay; not shown: His tag
T2 sequence: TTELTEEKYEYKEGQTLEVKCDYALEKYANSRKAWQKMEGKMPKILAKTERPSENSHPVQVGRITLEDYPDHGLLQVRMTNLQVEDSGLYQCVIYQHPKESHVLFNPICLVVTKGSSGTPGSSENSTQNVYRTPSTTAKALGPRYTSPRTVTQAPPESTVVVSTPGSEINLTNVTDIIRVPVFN

B1: 64D7 (antibody, V domains shown)
VH: QVQLVQSGAEVKKPGASVKVSCKASGYTFTSYDINWVRQATGQGLEWMGWMNPNRGNTGYVKKFQGRVTMTRNTSISTAYMELSSLRSEDTAVYYCARRRAVYRSSWEWYFDLWGRGTLVTVSS
VL: DTQMTQSPSSLSASEGDRVTITCQASQDIFNDLNWYQEKPGKAPKLLIYHASNLETGVPSRFSGSGSGTDYTFTISSLQPEDIATYYCQQYGNLPLTFGGGTKVEIK
B2: 49A2 (antibody, V domains shown)
VH: EVQLVESGGGLVQPGGSLRLSCAASGFTFSSNWMSWVRQAPGKGLDWMASMKQDGSEIYYVDSVKGRFTISRDNAKNSLHLQMNSLRAEDTAVYYCVRGGWRFESWGQGALVTVSS
VL: EIVMTQSPATLSVSPGERATLSCRASQSVSSNLAWYQQKSGQAPRLLIYGASIRATGIPARVSGSGSGTEFTFTISSLQSEDFAVYYCQQYKNWPLTLGGGTKVEIK
notes: also called 19333
B3: 61G5 (antibody, V domains shown)
VH: QVQLVQSGAEVKKPGASVKVSCKASGYTFTSYDINWVRQATGQGLEWMGWMNPNSGNSGSVKKFRDRVTMTRNTSISTAYMELSSLRSEDTAVYYCVRLIGYSSAWKWSFQHWGQGTLVTVSS
VL: DIQMTQSPSSLSASVGDRVTITCQASRDISKYLNWYQQKPGKAPKLQIYDASNLETGVPSRFSGSGSGTDFTFTISSLQPEDIATYYCQHYDNIPITFGQGTRLEIK
B4: 66B8 (antibody, V domains shown)
VH: QVQLVQSGAEVKKPGASVKVSCKASGYTFTGYYMHWVRQAPGQGLEWMGWFKPNSGVTNYAQKFQGRVTMSRDTSISTAYMELSSLRSDDTAVYYCARAGYSTSWKDWFDPWGQGTLVTVSS
VL: DIQMTQFPSSVSASVGDRVTITCRASQGISRWLAWYQQKQGKAPKLLIYMVSSLQSGVPSRFSGSGSGTDFTLTISSLQPEDFATYYCQQSHNFPITFGQGTRLDIK
B5: 44A5 (antibody, V domains shown)
VH: EVQLLESGGGLVQPGGSLRLSCAASGFTFSTYAMNWVRQAPGKGLEWVSTVSGSGRPTYYADSVKGRFTISRDNSKNTLYLQMNSLRAEDTAVYYCAKAYYSNYLFDYWGQGTLVTVSS
VL: EIVMTQSPAILSVSPGERATLSCRASQSVSSNLAWYQQKPGQAPRLLIYGASTRATGVPARFSGGGSGTDFTLTISSLQSEDFAVYYCQHCKTWPPLTFGGGTKVDLK
B6: 57C10 (antibody, V domains shown)
VH: QVQLVQSGAEVKKPGASVKVSCKASGYTFTRYDINWVRQATGQGLEWMGWLNPNSGNTGQTQKFRGRVTMTRNTSINTAYMELSSLRSEDTAVYYCARGGYTSAWRWYFDLWGRGTLVTVSS
VL: DIQMTQSPSSLSASVGDRVTITCQASQDINNHLNWYQQKPGKAPKLLIYDVSNLETGVPSSFSGSGCGTDFTFTISSLQPEDIATYFCQQYDKLPLTFGGGTKVEIE
B7: 61B12 (antibody, V domains shown)
VH: QVQLVQSGAEVTKPGASVKVSCKASGYTFTRYDINWVRQATGQGLEWMGWMNPNSGNSGSVQKFRGRVTMTRNTSITTVYMELSSLRSDDTAVYYCARGGISSSWHWAFDIWGQGTMVTVSS
VL: B6 VL with D50G, V51A, S52Y, N53T, S61R, C67S, F87Y, E107K
B8: 63F8 (antibody, V domains shown)
VH: QVQLVQSGAEVKKPGASVKVSCKASGYTFTSYDINWVRQATGQGLEWMGRMNPKSGNAGYVQNFRGRVTMTRNTSISTAYMELSSLRSEDTAVYYCARGGRTSIWSFVFDYWGQGTLVTVSS
VL: B6 VL with N30S, N31K, V51T, S61R, C67S, F87N, E107K
B9: 50A12 (antibody, V domains shown)
VH: EVQLVESGGGLVQPGGSLRLSCAASGFTFSSYWMSWVRQAPGKGLEWVANIKQDGSEEYYVDSVKGRFTISRDNAKNSLFLQMNSLRAEDTAVYYCARDYGDSFDYWGQGTLVTVSS
VL: DIQMTQSPSSVSASVGDRVTITCRASQGIRKWLAWYQQKPGRAPKLLIYAASRLQSGVPSRFSGSGSGTDFTLTISSLRPEDFATYYCLQAHGFPWTFGQGTKVEIK
B10: 30H2 (antibody, V domains shown)
VH: EVQVLESGGGLVQPGESLRLSCTASGFTFNAYAMSWVRQAPGKGLEWVSTISGSGSTTYYADSVKGRFTISRDNSKNTLDLQMNSLRAADTAVYYCAKVAGSNFFFDHWGQGTLVTVSS
VL: EIVMTQSPATLSVSPGERATLSCRASQSINSNLAWYQQKPGQAPRLLIYGAYTRATGIPDRFSGSGSGTEFTLTISSLQSEDFAVYYCQEFIMWPPWTFGLGTQVEIK
notes: also called 19330
B11: 46H7 (antibody, V domains shown)
VH: EVQLLESGGGMVQPGGSLRLSCAVSGFTFSRYAMSWVRQAPGKGLEWVSEMRGSSGSTYYADSVKGRFTISRDNSKNTLYLQMNSLRVEDTAIYYCAKEFSSNSLFDYWGQGTLVTVSS
VL: B10 VL with I29V, Q42R, Y52S, D60A, E90Q, I92Y, M93N, L101Q, Q104K
B12: 57F5 (antibody, V domains shown)
VH: EVQLLESGGGLVQPGGSLRLSCAASGFTFSSYAMTWVRQAPGRGLQWVSTISGSGSNTYYADSVKGRFTISRDNSKNTLYLQMSSLRAEDTAVYYCAKEGGSNRYFHHWGQGTLVTISS
VL: DIQMTQSPSSLSASVGDRVTITCRASQSISSNLNWYQQKPGKAPKLLISAASNLQSGVPSRFSGSESGTDFTLTISSLQSEDFATYYCQQSDSLPLTFGGGTKVEIN
B13: 34D1 (antibody, V domains shown)
VH: B6 VH with L51M, T58S, Q60S, T61V, N77H, T78I, A104S
VL: B3 VL with T20N, R27Q, S30R, Y32H, K45N, Q47L, S52A, D70A, D92A, I94L
B14: 3E12 (antibody, V domains shown)
VH: QVQLVQSGAEVKKPGASVKVSCKASGYTFNGYYIHWVRQAPGQGLEWMGWLNPNSGGANYAQKFQGWVTMTRDTSISTAYMELSRLTSDDTAVYYCARDQRKTTVTPFEYWGQGTLVTVSS
VL: SYELTQPPSVSVSPGQTASITCSGDKLGERNVCWYQLKPGQSPILVIYQDNKRPSGIPERFSGSKSGNTAILTISGTQAMDEADYYCQAWDRNVVFGGGTKLTVL

The binders below were run against T1, cyno TREM-1 (assay: cell-based or functional assay).

Binder | Ab IC50-Cyno PBMC (Trial 1), TNFα release induced by cyno PGLYRP1/PGN [nM] | Ab IC50-Cyno PBMC (Trial 2), TNFα release induced by cyno PGLYRP1/PGN [nM]
B1 | 6.94 | 0.78
B2 | 0.732 | 0.266
B3 | – | 2.34
B4 | 0.114 | 0.0232
B5 | 0.0579 | 0.0091
B6 | 0.154 | 0.0284
B7 | 0.0469 | 0.0174
B8 | 0.0226 | 0.0161
B9 | 2 | –
B10 | 3.77 | –
B11 | 0.0951 | 0.0097

These binders were tested against T2, cyno TREM-1-His protein (assay: BLI (Octet HTX), antibody captured on anti-human Fc sensor, cyno TREM-1-His as analyte, 1:1 model).
Description: Briefly, TREM-1 hybridoma supernatants normalized to 10 μg/mL in DMEM null media were prepared by diluting 1:10 in OCTET® assay buffer (10 mM Tris, 0.1% Triton X-100, 150 mM NaCl, 1 mM CaCl₂), 0.1 mg/mL BSA, at pH 7.6) to a final test concentration of 1 μg/mL. Amine reactive second-generation AR2G Biosensors (Molecular Devices) were pre-incubated in 200 μL nanopore water for a minimum of 10 minutes at room temperature before use. The AR2G Biosensors were then activated for 5 minutes in a solution of 20 mM EDC (1-Ethyl-3-[3-dimethylaminopropyl]carbodiimide hydrochloride) (ForteBio) pre-mixed with 10 mM NHS (N-hydroxysulfosuccinimide) (ForteBio) in nanopore water. An in-house generated mouse anti-human Fc monoclonal antibody was coupled to the AR2G Biosensors at 10 μg/mL in 10 mM sodium acetate buffer at pH 5 for 5 minutes, quenched with 1M ethanolamine at pH 8.5 for 5 minutes, and then used to capture antibody from solution. The TREM-1 test antibodies were loaded onto the Biosensors for 5 minutes, and baseline measurements were taken for 1 minute. […] The association of recombinant human TREM-1 with the antibody-loaded sensor was measured for 5 minutes, followed by dissociation in OCTET® buffer for 10 minutes. Biosensors were then regenerated with 10 mM glycine at pH 1.7, reloaded with the same TREM-1 antibodies on the same sensors for 5 minutes, and the same method was used to measure association and dissociation of cyno TREM-1-His protein. Data was referenced using a 0 nM analyte reference sensor. Kinetic analysis was performed using a 1:1 Langmuir model with mass transfer in Genedata Screener software.

Binder | Kd [nM]
B1 | 0.68
B2 | 1.87
B3 | 1.31
B12 | < 0.29
B4 | 1.64
B5 | 2.02
B6 | 1.28
B13 | 4.97
B7 | 1.27
B8 | 0.856
B9 | 6.42
B10 | 5.7
B14 | 1.8

Reference: patent US20260274913A1 (Amgen, published 2026)
